Test results reported in patent US20240199762A1 (PHILOGEN S P A, published 2024).

T1: human FAP expressed on transduced cells (SKRC52-hFAP, HT-1080-hFAP) (human, UniProt Q12884 1-760)
T1 construct: whole, on cells; Also the target in SKRC52-hFAP tumor cryosections and in tumors of tumor-bearing mice; also called cell-expressed human FAP
T1 sequence (looked up): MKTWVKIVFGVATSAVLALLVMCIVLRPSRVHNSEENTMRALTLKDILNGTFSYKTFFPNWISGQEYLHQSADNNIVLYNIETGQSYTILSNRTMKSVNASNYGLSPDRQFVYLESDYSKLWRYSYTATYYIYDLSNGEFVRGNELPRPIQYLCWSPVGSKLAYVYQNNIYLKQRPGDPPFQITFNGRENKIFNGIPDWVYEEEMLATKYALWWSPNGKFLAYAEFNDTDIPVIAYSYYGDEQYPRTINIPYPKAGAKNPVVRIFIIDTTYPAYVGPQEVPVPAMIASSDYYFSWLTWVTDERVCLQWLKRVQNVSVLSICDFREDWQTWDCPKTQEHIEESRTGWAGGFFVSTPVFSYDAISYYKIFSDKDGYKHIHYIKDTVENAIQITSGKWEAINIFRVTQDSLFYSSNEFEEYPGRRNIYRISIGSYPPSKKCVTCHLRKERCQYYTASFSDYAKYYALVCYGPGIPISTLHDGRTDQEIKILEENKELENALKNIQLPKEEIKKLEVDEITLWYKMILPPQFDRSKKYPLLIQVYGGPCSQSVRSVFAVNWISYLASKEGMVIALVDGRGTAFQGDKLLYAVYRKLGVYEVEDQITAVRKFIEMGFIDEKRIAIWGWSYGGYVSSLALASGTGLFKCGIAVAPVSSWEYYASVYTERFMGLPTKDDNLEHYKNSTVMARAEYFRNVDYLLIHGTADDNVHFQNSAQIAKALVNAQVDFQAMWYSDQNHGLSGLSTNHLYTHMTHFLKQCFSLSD

T2: ovine FAP (oFAP) extracellular domain (ECD) (sheep)
T2 construct: also called oFAP-ECD
T2 chain: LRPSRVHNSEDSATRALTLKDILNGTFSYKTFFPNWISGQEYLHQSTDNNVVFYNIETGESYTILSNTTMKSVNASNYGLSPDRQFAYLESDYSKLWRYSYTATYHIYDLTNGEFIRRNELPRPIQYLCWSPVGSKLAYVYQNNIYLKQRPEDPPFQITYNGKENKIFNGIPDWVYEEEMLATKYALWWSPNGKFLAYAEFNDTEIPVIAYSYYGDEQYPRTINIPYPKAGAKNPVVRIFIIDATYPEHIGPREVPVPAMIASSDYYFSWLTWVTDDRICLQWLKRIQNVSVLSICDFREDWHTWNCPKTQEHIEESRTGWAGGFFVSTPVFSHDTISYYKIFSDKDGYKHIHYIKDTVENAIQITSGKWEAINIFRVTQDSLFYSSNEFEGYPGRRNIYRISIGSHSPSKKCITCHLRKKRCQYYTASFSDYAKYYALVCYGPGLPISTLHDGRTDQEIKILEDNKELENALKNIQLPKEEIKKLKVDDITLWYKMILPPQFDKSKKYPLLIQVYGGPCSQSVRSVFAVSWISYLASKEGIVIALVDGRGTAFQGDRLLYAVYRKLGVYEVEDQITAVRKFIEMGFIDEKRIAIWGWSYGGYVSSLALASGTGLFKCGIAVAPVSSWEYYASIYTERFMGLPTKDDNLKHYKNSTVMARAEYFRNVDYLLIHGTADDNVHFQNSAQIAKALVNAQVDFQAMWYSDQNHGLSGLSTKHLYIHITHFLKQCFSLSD


Legend:
[1] = target: T1, human FAP expressed on transduced cells …; assay: immunofluorescence on SKRC52-hFAP tumor cryosections, FITC conjugate at 10 ug/mL
Experimental: (§1) Immunofluorescence experiments were performed with 7NP2 and KSF (negative control), both in IgG1 format on cryosections of renal cell carcinoma SKRC52-hFAP tumor tissue slides, which were transduced to express human FAP. The 7NP2 and KSF IgG1 molecules were conjugated to FITC to allow detection. Cryostat sections (10 μm) were stained using the 7NP2 and KSF IgG1 conjugates at a final concentration of 10 μg/mL and detected with rabbit anti-FITC and goat anti-rabbit AlexaFluor488 antibody. Slides were mounted with fluorescent mounting medium and analyzed with a microscope (FIG. 5).

[2] = target: T2, ovine FAP (oFAP) extracellular domain …; assay: ELISA, 120 nM oFAP-ECD coated, antibody at 5 ug/mL
Experimental: Cross-reactivity of the anti-hFAP antibodies with oFAP-ECD and pFAP-ECD was tested using ELISA. 120 nM of oFAP-ECD or pFAP-ECD was coated on Maxisorp plates overnight at 4° C. […] Specifically, the C5 antibody was employed in IgG2a format, while all other antibodies, including the 7NP2 antibody, were in IgG1 format. The differences between the IgG2a and IgG1 formats are not expected to affect binding to FAP. After 3 washes with PBS, binding of the antibodies to oFAP-ECD and pFAP-ECD was detected using an anti-human or anti-murine antibody HRP conjugate.

[3] = target: T1, human FAP expressed on transduced cells …; assay: immunofluorescence on SKRC52-hFAP tumor cryosections, FITC conjugate
Experimental: as §1

Row | binding result [1] | binding result [2] | binding result [3] | Binder
1 | binds | binds |  | anti-FAP antibody 7NP2 in IgG1 format (antibody, V domains shown, also called 7NP2 IgG1; 7NP2(IgG1)) VH: EVQLLESGGGLVQPGGSLRLSCAASGFTFSSYAMSWVRQAPGKGLEWVSAIGSVGGPTYYADSVKGRFTISRDNSKNTLYLQMNSLRAEDTAVYYCAKRLAWFDYWGQGTLVTVSS VL: EIVLTQSPGTLSLSPGERATLSCRASQSVSSSYLAWYQQKPGQAPRLLIYGASSRATGIPDRFSGSGSGTDFTLTISRLEPEDFAVYYCQQSGKGPLTFGQGTKVEIKR
2 |  |  | no binding (tested: 10 µg/mL) | anti-hen egg lysozyme antibody KSF in IgG1 format (antibody, V domains shown, Negative control; It was conjugated to FITC in the immunofluorescence and ex vivo experiments; also called KSF IgG1; KSF(IgG1)) VH: not shown VL: SSELTQDPAVSVALGQTVRITCQGDSLRSYYASWYQQKPGQAPVLVIYGKNNRPSGIPDRFSGSSSGNTASLTITGAQAEDEADYYCQSSPLNRLAVVFGGGTKLTVLG
